From article PMC4121272, “Two β-Galactosidases from the Human Isolate Bifidobacterium breve DSM 20213: Molecular Cloning and Expression, Biochemical Characterization and Synthesis of Galacto-Oligosaccharides” (PLoS ONE, 2014)

B1: β-gal II (Bifidobacterium breve DSM 20213 = JCM 1192) (protein)
chain: MNTTDDQLKNGDPIVSPSMPTTAWLTDPRVYAVHRLDAHSDHACWSHAPVNGEGSDLGQSLDGEWRVRVETAPTGRFPDGTSDVSPLFAASDFDDSSFSRVQVPSHLETAGLLAPQYVNVQYPWDGHEDPEAPAIPEHGHVAVYRREFDADGEVAQAVREGHPVTLTFQGAATAIYVWLNGSFVGYAEDSFTPSEFDVTDAIKMEGNVLAVACYEYSSASWLEDQDFWRLHGLFRSVELNARPSAHVADIHADTDWDPATSRGSLSLDILVDGTPNAATADLVLRDKNGTTVWHTSTEATGTLHAEAEIDGASPWSAERPDLYTLSIALLDADGRILEIARTRIGFRRVSIEDGILKLNGKRLVFRGVNRHEFDCRRGRAITEEDMLWDIRFMKRHNINAVRTSHYPNQSRWYELCDEYGIYLIDETNLETHGSWNSPGDIPVGTSVPGDDEAWLGACIDRLDSMIMRDRNHPSVLIWSLGNESYAGEVLKAMSAHAHRLDPGRPVHYEGVNWNHAYDEISDFESRMYAKPAEIRDWLEHGDERGEASKPFVSCEYMHAMGNSCGGLSEFIDLERYERYSGGFIWDYIDQGLVQRLPDGCERLSVGGDWGDRPTDYEFVGNGIVFADRTPSPKAQEVKQLYSPVKLTPDGHGVTIENRNLFASTDGYVFAARLLEDGREIWHADYRFDVAAGDTQHHDIAFPDIDSDEGTREVTYEVDLLLAEATAWAPAGYELAFGQLTDTLNPEGDITGNNQDDGRATVTLSRWNAGIRRDDEEILMSRTQGGIVSWKRNGREMVIRRPEIVTFRPLTDNDRGNRSGYDRAAWFAAGRYAVVTDTSITQSDDGGLTAAYRYELADPDHTPVSVTYRVTPGMRMQLTVEYPGNAAGAASLPAFGIEWELPGEYQHLRYYGTGPEETYRDRKQGGKLGIWDTTSEASTAPYLMVQETGSHEDVRWLEATDIQGHGLRVTQRGDRHFTASLLPWNTYTIEAARRHEDLPAPRHNYLRLLAAQMGVGGDDSWGAPVHTAYQLPADRPLTLDVNLELI
notes: full length, C-terminal His6 tag kept (pET-21a), E. coli T7 Express with GroEL/GroES, IMAC; calculated 116,594 Da; homodimer 211 kDa; GH2; N-terminus from primer MNTTDDQ, C-terminus before tag DVNLELI
B2: β-gal I (Bifidobacterium breve DSM 20213 = JCM 1192) (protein)
chain: MQGKAKTIMTNLQSAQQFSQAWLTDPRVFAVNRLAAHSSHKFYDHAPQCGEAMDLKQSLDGQWRVQMVDLADLADNELAEAAFAQPGYDAAGFSPIEVPSALETKGFLNHQYVNQQYPWSGHESPVAPDVPKHNHVALYRHEFSLEPKAAAVLEANKTAADDTAKRRVTLTFQGAATAIAVWLNGAFIGYAEDSFTPSEFDVTDVLRDGVNTLAVACFEFSSASWLEDQDFWRLHGIFRSVELEAQPLVHVNDLRVLADYDHTTGEGSLDVVALVRNAGTAAAVAATVLDAAGNTVWHSKLTAGADAETLTVKANVGKVNPWSAEEPTLYTLQVVATDAAGQVIEAALQRIGFRHFAIEDGLMKLNGKRIVFKGVDRHEFDARTGRTIAEADMIEDIHSFKRLNINAVRTSHYPNETRWYELCDEYGIYVLDETNLETHGSWTDPGDVFQPARAIPGSKDEWRAACVDRTASMVRRDYNHPSVVIWSLGNEAFGGDVFYSMRDFVHENDPFRPVHYEGTFNDPEFSAATDIMSRMYAKPDEIVKLYLGEDGKKPYISCEYSHSMGNSTGGLHLYTELERYPLYQGGFIWDYVDQALWQDCGDGTERLAYGGDFEDRPNDYEFSGDGVMFADRTPSPKAQEVKQLYANVKLVPDESGVTITNDNLFVSTASSLFTARVLVDGVERWHANYRFDVPAGETVREPIAFPKVTDLVALSGSAEVTYEVDQRLAEATDWAPAGYELTFGQYVAAVSFDDGAADAVVAGDAEVAADGFNAGIHTDFGEVLLSKTQGGMVSFKRDGREMVIRRPNLTTFRALTDNDRGNGSGFERAQWMAAGRYARVTDTSVEETADGKGLKATYSYELADAKHTPVTVHYEVDAALRVHLTVEYPGEADAATLPAFGLEWILPKQYDRLRFYGLGPEETYADRLHGAKLGVFSRTAAEDCAPYLLPQETGNHEQVRWAEITDEYGHGMRVTAAGGTRFATSLLPYSSLMLEDALHQNELPKPRHTFLRLLAAQMGVGGDDTWGAPVHDEFQVPADQPLKLDVTLELI
notes: full length, C-terminal His6 tag kept (pET-21a), E. coli T7 Express with GroEL/GroES, IMAC; calculated 116,127 Da; homodimer 220 kDa; GH2; N-terminus from primer MQGKAKT, C-terminus before tag DVTLELI

Substrate: O=[N+]([O-])c1ccccc1O[C@@H]1O[C@H](CO)[C@H](O)[C@H](O)[C@H]1O
Test: purified protein
Format: biochemical, Bifidobacterium breve
Settings: 50 mM sodium phosphate pH 6.5, 30°C

| Protein | Km [µM] | Vmax [µmol/min/mg] | kcat [s⁻¹] | kcat/Km [M⁻¹ s⁻¹] |
| --- | --- | --- | --- | --- |
| B1 | 670 ± 70 | 188 | 364 ± 6 | 543000 ± 65000 |
| B2 | 1300 ± 100 | 486 | 939 ± 7 | 722000 ± 66000 |
